Results from doi:10.1101/2024.02.18.580885 (bioRxiv, 2024).

Molecular target: the molecule itself
Test: dynamic light scattering

B1: TFIP11 N-TER (N-terminal region of Tuftelin Interacting Protein 11) (domain or fragment, human, UniProt Q9UBB9 1-350, looked up)
chain: MSLSHLYRDGEGRIDDDDDERENFEITDWDLQNEFNPNRQRHWQTKEEATYGVWAERDSDDERPSFGGKRARDYSAPVNFISAGLKKGAAEEAELEDSDDEEKPVKQDDFPKDFGPRKLKTGGNFKPSQKGFAGGTKSFMDFGSWERHTKGIGQKLLQKMGYVPGRGLGKNAQGIINPIEAKQRKGKGAVGAYGSERTTQSMQDFPVVDSEEEAEEEFQKELSQWRKDPSGSKKKPKYSYKTVEELKAKGRISKKLTAPQKELSQVKVIDMTGREQKVYYSYSQISHKHNVPDDGLPLQSQQLPQSGKEAKAPGFALPELEHNLQLLIDLTEQEIIQNDRQLQYERDMVV
**Q.** Does B1 bind?
**A.** binds
